# Results taken from patent publication US20260184782A1 (TWIST BIOSCIENCE, published 2026).
# Changes are numbered by the printed parent chain.
# B1: TIGIT-30-54 (VHH-V5-His) (VHH)
# VHH: EVQLVESGGGLVQAGGSLRLSCAASGFTFRSFGMGWFRQAPGKEREFVASTIWSRGDTYYADSVKGRFTISADNAKNTVYLQMNSLKPEDTAVYYCASSPYGPLYRSTHYYDWGQGTQVTVSS
# notes: not shown: V5-His tag
# B2: TIGIT-31-06 (VHH-V5-His) (VHH)
# VHH: EVQLVESGGGLVQPGGSLRLSCAASGFTFSTSWMGWFRQAPGKERELVASITSGGSTYYADSVKGRFTISADNSKNTAYLQMNSLKPEDTAVYYCAADVWYGSTWRNWGQGTLVTVSS
# notes: also called TIGIT-31-6; 31-6; not shown: V5-His tag
# B3: TIGIT-31-01 (VHH-V5-His) (VHH)
# VHH: B2 VHH with S30D, T31R, L47V
# notes: also called TIGIT-31-1; 31-1; not shown: V5-His tag
# B4: TIGIT-31-20 (VHH-V5-His) (VHH)
# VHH: B2 VHH with T31G, S32N, L47F, S50G, T52L, G54D, S56R, T57E, Y58L
# notes: not shown: V5-His tag
# B5: TIGIT-31-08 (VHH-V5-His) (VHH)
# VHH: B2 VHH with S50A, I51R, T52N, S56N, Y58N
# notes: also called TIGIT-31-8; 31-8; not shown: V5-His tag
# B6: TIGIT-30-58 (VHH-V5-His) (VHH)
# VHH: EVQLVESGGGLVQAGGSLRLSCAASGFAFGDSWMGWFRQAPGKEREWVSGISSGGGRTYYADSVKGRFTISADNAKNTVYLQMNSLKPEDTAVYYCAADVWYGSTWRNWGQGTQVTVSS
# notes: not shown: V5-His tag
# B7: TIGIT-SC181 (Fc fusion)
# VHH: EVQLVESGGGLVQPGGSLRLSCAASGFTLSSNWMGWFRQAPGKEREFVASVLRGGYTWYADSVKGRFTISADNSKNTAYLQMNSLKPEDTAVYYCARDAYYYGLWGQGTLVTVSS
# notes: VHH-Fc
# B8: TIGIT-SC167 (Fc fusion)
# VHH: EVQLVESGGGLVQPGGSLRLSCAASGRTFSFMGWFRQAPGKEREWVASVLRGGYTWYADSVKGRFTISADNSKNTAYLQMNSLKPEDTAVYYCAREGSGYASDYWGQGTLVTVSS
# notes: VHH-Fc
# B9: TIGIT-SC161 (Fc fusion)
# VHH: EVQLVESGGGLVQPGGSLRLSCAASGFTFSPSWMGWFRQAPGKEREWVASVLRGGYTWYADSVKGRFTISADNSKNTAYLQMNSLKPEDTAVYYCTTDRAIGVRPLFDHWGQGTLVTVSS
# notes: VHH-Fc
# B10: TIGIT-SC199 (Fc fusion)
# VHH: EVQLVESGGGLVQPGGSLRLSCAASGFSSAQYAMGWFRQAPGKERELVASIDSEGRTNYADSVKGRFTISADNSKNTAYLQMNSLKPEDTAVYYCTRDGGFDPWGQGTLVTVSS
# notes: VHH-Fc
# B11: TIGIT-SC174 (Fc fusion)
# VHH: EVQLVESGGGLVQPGGSLRLSCAASGFLFDSYAMGWFRQAPGKEREFVAAISWSGGSTYYADSVKGRFTISADNSKNTAYLQMNSLKPEDTAVYYCTTDALRFLEWPWWGQGTLVTVSS
# notes: VHH-Fc
# B12: TIGIT-SC205 (Fc fusion)
# VHH: EVQLVESGGGLVQPGGSLRLSCAASGFTFDRSWMGWFRQAPGKEREFVAAIWRSGTLKAYADSVKGRFTISADNGKNTAYLQMNSLKPEDTAVYYCAEGGTTAWGWFVPWGQGTLVTVSS
# notes: VHH-Fc
# B13: TIGIT-SC208 (Fc fusion)
# VHH: EVQLVESGGGLVQPGGSLRLSCAASGFLFDSYVMGWFRQAPGKEREFVAAIWRSGTLKAYADSVKGRFTISADNSKNTEYLQMNSLKPEDTAVYYCARDDYGDTRRYFQHWGQGTLVTVSS
# notes: VHH-Fc
# B14: TIGIT-SC207 (Fc fusion)
# VHH: B13 VHH with L28A, D30S
# notes: VHH-Fc
# B15: TIGIT-SC209 (Fc fusion)
# VHH: B13 VHH with D30N, V33W, T104Y, R106I
# notes: VHH-Fc
# B16: TIGIT-SC179 (Fc fusion)
# VHH: EVQLVESGGGLVQPGGSLRLSCAASGFTFSPSWMGWFRQAPGKEREWVASVLRGGYTWYADSVKGRFTISADNSKNTAYLQMNSLKPEDTAVYYCASEVASGETDYWGQGTLVTVSS
# notes: VHH-Fc
# B17: TIGIT-SC163 (Fc fusion)
# VHH: B16 VHH with S30D, P31R, S97T, E98D, V99K, A100R, S101G, G102P, E103H, T104P
# notes: VHH-Fc
# B18: TIGIT-SC184 (Fc fusion)
# VHH: EVQLVESGGGLVQPGGSLRLSCAASGFTFSPSWMGWFRQAPGKEREWVASVLRGGYTWYADSVKGRFTISADNSKNTAYLQMNSLKPEDTAVYYCTTDRGYNWNYDWGQGTLVTVSS
# notes: VHH-Fc
# B19: TIGIT-SC166 (Fc fusion)
# VHH: B16 VHH with S30D, P31R, S97R, V99G, A100S, S101G, G102Y, E103A, T104S
# notes: VHH-Fc
# B20: TIGIT-SC178 (Fc fusion)
# VHH: B16 VHH with F29L
# notes: VHH-Fc
# B21: TIGIT-SC168 (Fc fusion)
# VHH: EVQLVESGGGLVQPGGSLRLSCAASGFTFDRSWMGWFRQAPGKEREWVASVLRGGYAWYADSVKGRFTISADNSKNTAYLQMSSLKPEDTAVYYCAREGSGYASDYWGQGTLVTVSS
# notes: VHH-Fc
# B22: TIGIT-SC213 (Fc fusion)
# VHH: EVQLVESGGGLVQPGGSLRLSCAASGTFQRINAMGWFRQAPGKEREFVAAIWRSGTLKAYADSVKGRFTISADNSKNTAYLQMNSLKPEDTAVYYCARWVGASGDYWIDYWGQGTLVTVSS
# notes: VHH-Fc
# B23: TIGIT-SC169 (Fc fusion)
# VHH: EVQLVESGGGLVQPGGSLRLSCAASGFTLNDYAMGWFRQAPGKERELVAWIARYDGSTLYADSVKGRFTISADNSKNTAYLQMNSLKPEDTAVYYCTTELRWELQQPDYWGQGTLVTVSS
# notes: VHH-Fc
# B24: TIGIT-SC186 (Fc fusion)
# VHH: B18 VHH with F27N, P31G, S32G, W33F, W47Y, A78T
# notes: VHH-Fc
# B25: TIGIT-SC180 (Fc fusion)
# VHH: EVQLVESGGGLVQPGGSLRLSCAASGFTLNDYAMGWFRQAPGKERELVAWIARYDGSTLYADSVKGRFTISADNSKNTAYLQMNSLKPEDTAVYYCASEVASGETDYWGQGTLVTVSS
# notes: VHH-Fc
# B26: TIGIT-SC190 (Fc fusion)
# VHH: EVQLVESGGGLVQPGGSLRLSCAASGFTFDRSWMGWFRQAPGKEREWVASVLRGGYTWYADSVKGRFTISADNSKNTAYLQMNSLKPEDTAVYYCVTDVGAPDYWGQGTLVTVSS
# notes: VHH-Fc
# B27: TIGIT-SC176 (Fc fusion)
# VHH: EVQLVESGGGLVQPGGSLRLSCAASGFTFSPSWMGWFRQAPGKEREWVASVLRGGYTWYADSVKGRFTISADNSKNTAYLQMNSLKPEDTAVYYCVHEDSVAAHFDFWGQGTLVTVSS
# notes: VHH-Fc
# B28: TIGIT-SC177 (Fc fusion)
# VHH: B27 VHH with V96A, H97T, E98D, D99R, S100G, V101P, A103M, H104V, D106N, F107L
# notes: VHH-Fc
# B29: TIGIT-SC214 (Fc fusion)
# VHH: EVQLVESGGGLVQPGGSLRLSCAASGFTFGDSWMGWFRQAPGKEHEFVAAIWRSGTLKAYADSVKGRFTISADNSKNTAYLQMNSLKPEDTAVYYCTSYDAVAGTRDFWGQGTLVTVSS
# notes: VHH-Fc
# B30: TIGIT-SC182 (Fc fusion)
# VHH: EVQLVESGGGLVQPGGSLRLSCAASGFTFSSSSMGWFRQAPGKEREFVAAINWSGGSTSYADSVKGRFTISADNSKNTAYLQMNSPKPEDTAVYYCAKDRSYSFDYWGQGTLVTVSS
# notes: VHH-Fc
# B31: TIGIT-SC206 (Fc fusion)
# VHH: EVQLVESGGGLVQPGGSLRLSCAASGFLFDSYVMGWFRQAPGKEREFVAAIWRSGTLKAYADSVKGRFTISADNSKNTAYLQMNGLKPEDTAVYYCAGVGTDYGDYLFNYWGQGTLVTVSS
# notes: VHH-Fc
# B32: TIGIT-SC204 (Fc fusion)
# VHH: EVQLVESGGGLVQPGGSLRLSCAASGFLFNSYWMVWFRQAPGKEREFVAAIWRSGTLKAYADSVKGRFTISADNSKNTAYLQMNSLKPEDTAVYYCAADVNYGSTWRNWGQGTLVTVSS
# notes: VHH-Fc
# B33: TIGIT-SC192 (Fc fusion)
# VHH: EVQLVESGGGLVQPGGSLRLSCAASGFTFSVYWMGWFRQAPGKEREFVAAISRSGTLKEYADSVKGRFTISADNSKNTAYLQMNSLKPEDTAVYYCARGSGWPKIHFDYWGQGTLVTVSS
# notes: VHH-Fc
# Target: T1, TIGIT (UniProt Q495A1 22-141, limits assumed)
# T1 construct: also called T cell immunoreceptor with Ig and ITIM domains; hTIGIT
# T1 sequence (looked up): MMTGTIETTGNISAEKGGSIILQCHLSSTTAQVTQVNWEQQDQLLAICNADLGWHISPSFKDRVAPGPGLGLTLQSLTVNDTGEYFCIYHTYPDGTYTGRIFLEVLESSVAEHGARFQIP
# Test: SPR, VHH-V5-His
Binder,Kd [nM],RU [RU],koff [s⁻¹],kon [M⁻¹ s⁻¹]
B1,1090,130,0.04,30000
B2,145,107,0.003,20000
B3,169,122,0.004,20000
B4,281,45,0.004,10000
B5,210,178,0.009,40000
B6,1060,120,0.01,10000

# Target: T2, human TIGIT-Fc (human, UniProt Q495A1 22-141, limits assumed)
# T2 construct: not shown: Fc; not described
# T2 sequence (looked up): T1 sequence (looked up)
# Test: CD155 competition ELISA, single point; further: test concentration or dose not given here
# Description: TIGIT/CD155 inhibition of VHH-Fcs were assessed using an ELISA assay (Table 10B). Briefly, human TIGIT-Fc was coated on a plate & then incubated with VHH-Fcs and human CD155-biotin. Bound CD155-biotin was detected using a streptavidin-HRP conjugate visualized with TMB. Strong inhibitors from the single point screen were titrated to determine EC50 (Table 10C).
row,Binder,OD (450 nm) [OD]
1,B7,0.554
2,B8,0.279
3,B9,0.451
4,B10,0.503
5,B11,0.532
6,B12,0.441
7,B13,0.544
8,B14,0.504
9,B15,0.56
10,B16,0.591
11,B17,0.328
12,B18,0.534
13,B19,0.328
14,B20,0.494
15,B21,0.306
16,B22,0.587
17,B23,0.679
18,B24,0.576
19,B25,0.639
20,B26,0.533
21,B27,0.57
22,B28,0.507
23,B29,0.828
24,B30,0.607
25,B31,0.517
26,B32,0.449
27,B33,0.487
